Consider six substances from patent US20020058247A1.

For this experiment, the target named is … (SEQ. ID. No. 74). As to the kind of experiment: competition EIA, 5 ug HBcAg peptide + 5 ug SEQ 74 peptide on coated HBcAg (competitor); OD of bound SEQ 74 peptide.

Consider “HBcAg peptide … (residues 51-70, Sequence ID 100)”, for which the OD at 490 nm came out at 0.646 OD. The result for “HBcAg peptide … (residues 111-131 as printed, Sequence ID 106)” reads 0.832 OD; that for “HBcAg peptide … (residues 121-140, Sequence ID 107)”, 0.701 OD.

“HBcAg peptide … (residues 141-160, Sequence ID 109)”: the OD at 490 nm was determined as 0.811 OD. In the case of “HBcAg peptide … (residues 151-170, Sequence ID 110)” it was 0.732 OD; in that of “HBcAg peptide … (residues 161-183, Sequence ID 111)”, 0.678 OD.
